Laboratory results as given in patent US20230374114A1 (Dana-Farber, published 2023).
Changes are numbered by the printed parent chain.

B1: S1-RBD-R3-T1-F5 (Ab2-7) (scFv, V domains shown)
VH: QVTLKESGPTRVKPTQTLTLTCTFSGFSLSTTGVGVGWIRQPPGKALEWLALIYWNDDKRYSPSLKSRLTITKDTSKNQVVLTMTNMDPVDTATYYCARISGSGYFYPFDIWGQGTTVTVSS
VL: NFMLTQPHSVSESPGKTVTISCTRSSGSIASNYVQWYQQRPGSSPTTVIYEDNQRPSGVPDRFSGSIDSSSNSASLTISGLKAEDEADYYCQSYDSSSLWVFGGGTKLTVL
B2: RBD-R3-E1-G7 (Ab2-10) (scFv, V domains shown)
VH: EVQLVESGPGLVKPSETLSLTCTVSGGSISSYYWSWIRQPAGKGLEWIGRIYTSGSTNYNPSLKSRVTMSVDTSKNQFSLKLSSVTAADTAVYYCARDVGFGWFDRWGQGTLVTVSS
VL: B1 VL with K82T, A83T, Y94F, S97A
B3: Ab_13 (scFv, V domains shown)
VH: B1 VH with T10K, R11L, T32S, N56D, T72A, N78Y, T117M, S122A
VL: B1 VL with S44A, A83T, S98N
B4: S1-RBD-R3-T1-E2 (Ab7) (scFv, V domains shown)
VH: QVQLVQSGGGLVQPGRSLRLSCAASGFTFDDYAMHWVRQVPGKGLEWVSGIDWNSGVIGYADSVKGRFTISRDNAKNSLYLQMNSLRAEDTALYYCAKDAYSYGFLGAFDIWGQGTMVTVSS
VL: QPGLTQPPSVSVAPGQTARISCGGNNIGSKSVHWYQQKPGRAPVLVVYEDRGRPSGIPERFSGSNSGNTATLTVSRVEAGDEADYYCQVWDGDSDHYVFATGTKVSIL
B5: S1-RBD-R3-T1-D7 Ab (Ab_34) (scFv, V domains shown)
VH: QVQLVQSGVEVKKPGESLKISCKGSGYSFTSYWIGWVRQMPGKGLEWMGIIYPGDSDTRYSPSFQGQVTISADKSISTAYLQWSSLKASDTAMYYCARTTYSYGSFDYWGQGTLVTVSS
VL: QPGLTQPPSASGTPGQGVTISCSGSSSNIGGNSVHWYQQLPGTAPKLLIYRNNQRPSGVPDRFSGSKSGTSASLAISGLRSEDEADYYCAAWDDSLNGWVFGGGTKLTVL
B6: S1-R3-T1-C4 (Ab_8) (scFv, V domains shown)
VH: QVQLVQSGAEVKKPGSSVKVSCKASGGTFSSYAISWLRQAPGQGLEWMGWINPNSGGTNYAQKFQGRVTMTRDTSISTAYMELSRLRSDDTAVYYCARGSGGYYLGWGQGTLVTVSS
VL: QPGLTQPPSVSKGLRQTATLTCTGNSNNVGNQGAAWLQQHQGHPPKLLSYMNNNRPPGISERFSASRSGNTASLTITGLQPEDEADYYCSAWDSSLSRWVFGGGTKLSVL
B7: RBD-R3-T1-H3 (Ab_2) (scFv, V domains shown)
VH: EVQLVQSGAEVKKPGSSVKVSCKTSGYTFTTSGISWVRQAPGQGLEWMGWISAYNGNTNYAQKLQGRVTMTTDTSTSTAYMELRSLRSDDTAVYYCARDFHLYYGMDVWGKGTLVTVSS
VL: QSALTQPPSASGSPGQSVTISCTGTSSDVGAYNYVSWYQQHPGKAPKLLIYDVTKRPPGVPDRFSGSKSGNTASLTVSGLQAEDEADYYCAVWDDGLNGRVVFGGGTKLTVL
B8: S1-R3-T1-H7 (Ab12) (scFv, V domains shown)
VH: EVQLVESGPGVVSPSATLFLTCSVSGGSIRTHSWNWIRQPPGKPLEWIGFIHHSGATNKNPSLKSRVTISSDTSKNEFSLTLTSVTAADTAVYYCARGPGILSYWSRGTLVTVSS
VL: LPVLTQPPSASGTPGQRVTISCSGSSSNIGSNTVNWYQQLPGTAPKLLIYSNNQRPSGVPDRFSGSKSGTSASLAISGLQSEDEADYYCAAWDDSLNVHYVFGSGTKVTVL
B9: RBD-R3-E1-F5 Ab (Ab_36) (scFv, V domains shown)
VH: QVQLQQSGPGLVKPSQTLSLTCAIFGDSVTSNSAAWNWIRQSPSRGLEWLGRTYYSSKWYNDYAVSVKSRVTINADTSKNQLSLQLNSVTPEDTAVYYCARGWLRLSFDPWGQGTLVTVSS
VL: NFMLTQPHSVSESPGKTVTISCTGSSGSIASNYVQWLQQRLGSAPTTVIYEDNQRPSGVPDRFSGSIDSSSNSASLTISGLKTEDEADYYCQSYDPNNHGVVFGGGTKLTVL
B10: S1-RBD-R3-T1-G1 Ab (Ab_35) (scFv, V domains shown)
VH: EVQLVQSGAEVKKPGESLRISCKASGYSFTSNWIGWVRQMPGKGLEWMGSIFPGDSDTKYSPSFQGQVTISADRSISTAYLQWSGLKASDTAMYYCARESYNAYGSWGQGTLVTVSS
VL: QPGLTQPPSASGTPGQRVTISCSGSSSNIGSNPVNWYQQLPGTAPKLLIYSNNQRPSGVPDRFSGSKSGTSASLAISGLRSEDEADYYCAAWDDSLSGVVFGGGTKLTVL
B11: Ab 38 (scFv, V domains shown)
VH: QVTLKESGPTLVKPTQTLTLTCTFSGFSLTTSGVSVGWIRQPPGKALEWLALIHWDDDKRYSPSLRSRLTITRDTSKNQVVLTVTDMDPADTGTYYCASFIMTVYAEYFEDWGQGTLVTVSS
VL: EIVLTQSPATLSVSPGERATLSCRASQSVSSNLAWYQQKPGQAPRLLMYDVSTRATGIPARFSGSGSGTEFSLTISSLQSEDFAVYYCQQRGAWPLTFGGGTKVEIK
B12: S1-RBD-R3-E1-E8 Ab (Ab 37) (scFv, V domains shown)
VH: QVQLVQSGAEVKKPGASVKVSCKASGYTFTSYGISWVRQAPGQGLEWMGWISTYNGNTNYAQKLQGRVTMTTDTSTSTAYMEVRSLRSDDTAVYYCARDVFGHFDYWGQGTLVTVSS
VL: NFMLTQPHSVSESPGKTVLISCTRSSGNIATNYVQWYQQRPGSAPTTVIYEDNQRPSGVPDRFSGSIDSSSNSASLTISGLKTEDEADYYCKSYDDGNHVFGGGTKLTVL
B13: S1-RBD-R3-T1-F9 Ab (Ab_39) (scFv, V domains shown)
VH: QVTLKESGPTLVKPTQTLTLTCTLSGVSLDTIGMRVSWIRQPPGKALEWLARIDWDDDKFYSTALKTRLTISKDTSKNQVVFTMTSMDPVDTATYYCARSGLLYDLDVWGRGTLVTVSS
VL: QSVVTQPPSVSGAPGQRVTISCTGSDSDIGANFVQWYQQLPGTAPKLLIWRNTNRPSGVPDRFSASKSGTSASLAITGLQAEDEADYFCQSYDSSLSAYVFGGGTKVTVL

These binders were tested against D614G Spike (SARS-CoV-2, UniProt P0DTC2 16-1213).

Binder | Kd [pM]
B1 | 9.93
B2 | 8.87
B3 | 8.1
B4 | 2.74
B5 | 9.15
B6 | 7.3
B7 | 167
B8 | 11.2

What follows are binders tested against D614G Spike (SARS-CoV2, UniProt P0DTC2 16-1213).

Binder | Kd [pM]
B9 | 7.42
B10 | 8.69
B11 | 3.37
B12 | 8.54
B13 | < 1
